Residue numbers refer to the chain shown, from its start.
T1: human TREM2 Fc fusion (entire TREM2 ECD; only one Fc arm fused to TREM2) (human, UniProt Q9NZC2 19-174)
T1 construct: also called huTREM2-Fc; recombinant hTREM2
T1 sequence: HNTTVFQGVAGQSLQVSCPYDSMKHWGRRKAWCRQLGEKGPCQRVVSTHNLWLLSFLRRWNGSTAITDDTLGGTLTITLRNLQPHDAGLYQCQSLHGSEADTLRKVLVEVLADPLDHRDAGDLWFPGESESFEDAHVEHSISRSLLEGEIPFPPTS

T2: cynomolgus monkey TREM2 Fc fusion (entire TREM2 ECD; only one Fc arm fused to TREM2) (cynomolgus monkey, UniProt Q9NZC2 19-174 (human entry))
T2 construct: also called cyno TREM2-Fc
T2 chain: T1 sequence with A10E, W60R, L89F, F125V

T3: human TREM2 expressed on cells (human, UniProt Q9NZC2 19-230)
T3 construct: BW5147.G.1.4 cells stably expressing human TREM2 together with Dap12, or endogenous TREM2 of primary human myeloid cells; also called huT2 BW; hTREM2 expressing cell line
T3 sequence: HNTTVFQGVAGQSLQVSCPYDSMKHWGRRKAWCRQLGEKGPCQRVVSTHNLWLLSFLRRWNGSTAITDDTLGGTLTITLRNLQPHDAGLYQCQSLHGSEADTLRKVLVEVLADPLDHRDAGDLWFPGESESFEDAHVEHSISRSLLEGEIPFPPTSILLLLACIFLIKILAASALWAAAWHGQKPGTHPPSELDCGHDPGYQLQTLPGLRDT

B1: AL2p-21 (antibody, V domains shown)
VH: QVQLVQSGAEVKKPGSSVKVSCKASGYAFSSHWMNWVRQAPGQGLEWMGRIYPGDGDTNYAWKFQGRVTITADESTSTAYMELSSLRSEDTAVYYCARLLRNQPGESYAMDYWGQGTLVTVSS
VL: GVVMTQTPLSLSVTPGQPASISCRSSSSLVHSNGYTYLHWYLQKPGQSPQLLIYKVSNRKSGVPDRFSGSGSGTDFTLKISRVEAEDVGVYYCSQSTRVPYTFGQGTKLEIK
notes: Fab and IgG formats under one id
B2: AL2p-22 (antibody, V domains shown)
VH: B1 VH with W62Y
VL: B1 VL with S27R, K60R
notes: as for B1
B3: AL2p-24 (antibody, V domains shown)
VH: B1 VH with D55G, W62Q
VL: B1 VL with S27R, K60F
notes: as for B1
B4: AL2p-25 (antibody, V domains shown)
VH: B1 VH with D55G, W62Q, Q65R
VL: B1 VL with S25T, S27Q, K60V
notes: as for B1
B5: AL2p-27 (antibody, V domains shown)
VH: B1 VH with D55Q, W62Q
VL: B1 VL with S27R, K60V
notes: as for B1
B6: AL2p-28 (antibody, V domains shown)
VH: B1 VH with D55V, W62Q
VL: B1 VL with S25T, S27Q, K60V
notes: as for B1
B7: AL2p-30 (antibody, V domains shown)
VH: B1 VH with H32Q
VL: B1 VL
notes: as for B1
B8: AL2p-32 (antibody, V domains shown)
VH: B1 VH with H32E, W62Q
VL: B1 VL with S27Q, K60R
notes: as for B1
B9: AL2p-33 (antibody, V domains shown)
VH: B1 VH with Q1E, H32S, W62Q
VL: B1 VL with T5A, S25T, S27Q, K60V
notes: as for B1
B10: AL2p-38 (antibody, V domains shown)
VH: B1 VH with D55G, W62Q, Q65R, E106A
VL: B1 VL with S27R, G34R, K60R
notes: as for B1
B11: AL2p-39 (antibody, V domains shown)
VH: B1 VH with D55G, W62Q, Q65R, E106A
VL: B1 VL with S27R, G34Q, K60R
notes: as for B1
B12: AL2p-40 (antibody, IgG1, V domains shown)
VH: B1 VH with D55G, W62Q, Q65R, E106A
VL: B1 VL with S25T, S27R, G34R, K60R
notes: as for B1
B13: AL2p-41 (antibody, IgG1, V domains shown)
VH: B1 VH with D55E, W62Q, Q65R, E106A
VL: B1 VL with S27R, G34Q, K60R
notes: as for B1
B14: AL2p-42 (antibody, V domains shown)
VH: B1 VH with D55E, W62Q, Q65R, E106A
VL: B1 VL with S25T, S27R, G34R, K60R
notes: as for B1
B15: AL2p-43 (antibody, V domains shown)
VH: B1 VH with D55G, W62R, Q65R, E106A
VL: B1 VL with S27R, G34R, K60R
notes: as for B1
B16: AL2p-44 (antibody, IgG1, V domains shown)
VH: B1 VH with D55G, W62R, Q65R, E106A
VL: B1 VL with S25T, S27R, G34R, K60R
notes: as for B1
B17: AL2p-45 (antibody, V domains shown)
VH: B1 VH with H32D, D55E, W62R, Q103K
VL: B1 VL with G1D, S25T, S27Q, G34A, K60V
notes: as for B1

Tests used:
[1] = target: T1, human TREM2 Fc fusion (entire TREM2 …); assay: BLI, IgG, avid
Experimental: Briefly, IgGs were loaded on-line onto AHQ sensors, Sensors were equilibrated off-line in assay buffer for 30 minutes and then monitored on-line for 60 seconds for baseline establishment. For avid binding measurement, sensors with loaded IgGs were exposed to 100 nM antigen (human or cynomolgus monkey TREM2 Fe fusion using the entire TREM2 ECD; only one Fc arm was fused to TREM2) for 3 minutes, afterwards they were transferred to assay buffer for 3 minutes for off-rate measurement. Monovalent binding measurements were obtained by loading human TREM2 Fc fusion antigens to AHQ sensor and followed by exposure to 100 nM TREM2 antibody Fab. Kinetics data were fit using a 1:1 binding model in the data analysis software provided by ForteBio. Assay was run at room temperature (25° C.).

[2] = target: T1, human TREM2 Fc fusion (entire TREM2 …); assay: BLI, Fab, monovalent
[3] = target: T2, cynomolgus monkey TREM2 Fc fusion …; assay: BLI, Fab, monovalent
[4] = target: T4, human TREM2/DAP12 fusion protein (human, UniProt O43914 41-113, limits assumed); assay: cell-based or functional assay
[5] = target: T3, human TREM2 expressed on cells; assay: FACS, hTREM2 BW cells
Source text: (§1) To examine cell binding of affinity matured anti-TREM2 antibodies, both primary human monocyte derived dendritic cells and recombinant, human TREM2 expressing cells were utilized. For the latter, BW5147.G.1.4 (ATCC® TIB48™) and HEK293T cells stably expressing human TREM2 together with Dap12 using viral infection were established. For primary human monocyte derived dendritic cells, human monocytes were isolated from whole blood using RosetteSep Human monocyte enrichment cocktail (Stemcell technologies) and Ficoll centrifugation per manufacturer protocols. After lysing red blood cells with ACK lysing buffer, monocytes were resuspended in complete media (RPMI, 10% FBS, Pen/Strep, L-glutamine, HEPES, non-essential amino acid, Sodium pyruvate) with 100 ng/ml human GM-CSF (hu-GMCSF) and, human IL-4 (hu-IL-4) to differentiate dendritic cells for 6 days.
(§2) Cells were harvested by trypsinization (Hek293T) or scraping (BW and dendritic cells), washed in PBS, counted and plated on 96-well U bottom plates at […] cells/well. The plates were spun at 1,400 rpm for 3 minutes and primary TREM2 or control antibodies were added in FACS buffer (PBS+2% FBS) and incubated on ice for one hour. Cells were subsequently centrifuged as before and washed thrice with FACS buffer. Cells were then incubated with anti-human PE conjugated secondary antibody (BD Biosciences) in FACS buffer for 30 minutes on ice. Cells were again washed thrice with FACS buffer and analyzed on a BD FACS Canto or an Intellicyt Flow Cytometer. Binding was measured as mean fluorescence intensity in the APC channel.

[6] = target: T3, human TREM2 expressed on cells; assay: FACS, human DCs
Source text: as §1, §2

[7] = target: T3, human TREM2 expressed on cells; assay: cell-based or functional assay
[8] = target: T4, human TREM2/DAP12 fusion protein; assay: cell-based or functional assay; remark: listed apart in the source
Target sequence in this assay (O43914 other isoform, or with tags, fused parts or gaps limits assumed): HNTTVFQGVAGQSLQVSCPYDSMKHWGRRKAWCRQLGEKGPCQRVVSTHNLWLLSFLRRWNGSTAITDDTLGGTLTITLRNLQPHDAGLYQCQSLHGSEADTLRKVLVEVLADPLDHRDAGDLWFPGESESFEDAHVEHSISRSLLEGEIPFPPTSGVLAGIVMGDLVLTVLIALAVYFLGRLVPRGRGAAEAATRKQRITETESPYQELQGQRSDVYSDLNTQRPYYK

Binder | Kd [1] [nM] | Kd [2] [nM] | Kd [3] [nM] | Luciferase activation plate bound 33 nM IgG, FOC [4] [FOC] | Luciferase activation soluble 10 nM IgG, FOC [4] [FOC] | Kd [5] [nM] | MFI [6] [MFI] | DC viability (AUC) [7] [AUC] | Mac viability (AUC) [7] [AUC] | BW Luc assay plate bound 7.3 nM IgG, FOC [8] [FOC] | BW Luc assay soluble 7.3 nM IgG, FOC [8] [FOC]
B1 | 0.399 | 4.15 | 3.84 | 13.1 | 1.83 | 1.5 | – | – | – | – | –
B2 | 0.219 | 1.58 | 1.28 | 24.9 | 1.75 | 1.5 | – | – | – | – | –
B3 | 0.233 | 2.1 | 1.63 | 24.1 | 2.12 | 1.7 | – | – | – | – | –
B4 | 0.22 | 2.34 | 1.76 | 22.3 | 2.35 | 1.7 | – | – | – | – | –
B5 | 0.274 | 1.99 | 1.82 | 24.4 | 2.06 | 1.5 | – | – | – | – | –
B6 | 0.417 | 7.6 | 7.91 | 9.27 | 2.14 | 2.2 | – | – | – | – | –
B7 | 0.377 | 6.5 | 5.66 | 15.8 | 2.31 | 1.2 | – | – | – | – | –
B8 | 1.12 | 36 | 34.8 | 4.9 | 1.47 | 2.8 | – | – | – | – | –
B9 | 0.889 | 10.3 | 0.884 | 3.21 | 1.72 | 4.5 | – | – | – | – | –
B10 | – | 0.623 | 0.37 | – | – | 4.79 | 499 | 786000 | 39000 | 4.47 | 4.98
B11 | – | 0.631 | 0.346 | – | – | 1.53 | 590 | 851000 | 66900 | 8.12 | 3.81
B12 | – | 0.602 | 0.37 | – | – | 2.27 | 547 | 825000 | 63200 | 8.49 | 9.92
B13 | – | 0.724 | 0.352 | – | – | 1.31 | 534 | 860000 | 80700 | 7.61 | 2.92
B14 | – | 0.829 | 0.312 | – | – | 1.91 | 662 | 781000 | 57900 | 6.52 | 5.95
B15 | – | 0.493 | 0.36 | – | – | 5.01 | 1040 | – | – | 5.41 | 8.84
B16 | – | 0.41 | 0.271 | – | – | 4.18 | 1470 | 750000 | 74700 | 7.17 | 11.5
B17 | – | 17.8 | 20.9 | – | – | 1.54 | 318 | 543000 | 3680 | 2.29 | 2.38

Source: patent publication US20200317776A1 (published 2020)
